T1: GST-HERC2 (2540–2700th) (human, UniProt O95714 2540-2700)
T1 construct: also called HECT and RLD domains-containing E3 ubiquitin protein ligase 2; not shown: GST, N-terminal, kept
T1 sequence (looked up): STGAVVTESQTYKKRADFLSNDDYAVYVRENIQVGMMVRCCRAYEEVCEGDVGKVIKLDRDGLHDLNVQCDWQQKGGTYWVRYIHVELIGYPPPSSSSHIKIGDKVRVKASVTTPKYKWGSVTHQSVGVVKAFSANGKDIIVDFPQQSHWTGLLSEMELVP

B1: his-tagged NCOA4 (383–522nd) recombinant protein, WT (domain or fragment, human, UniProt Q13772-1 383-522, looked up)
chain: SMVTEDWLVQNHQDPCKVEEVCRANEPCTSFAECVCDENCEKEALYKWLLKKEGKDKNGMPVEPKPEPEKHKDSLNMWLCPRKEVIEQTKAPKAMTPSRIADSFQVIKNSPLSEWLIRPPYKEGSPKEVPGTEDRAGKQK
notes: Expressed from pQE80L; also called purified NCOA4; not shown: His6, N-terminal, kept
B2: his-tagged NCOA4 (383–522nd) 4C > A (domain or fragment, human, UniProt Q13772-1 383-522, looked up)
chain: SMVTEDWLVQNHQDPCKVEEVARANEPATSFAEAVCDENAEKEALYKWLLKKEGKDKNGMPVEPKPEPEKHKDSLNMWLCPRKEVIEQTKAPKAMTPSRIADSFQVIKNSPLSEWLIRPPYKEGSPKEVPGTEDRAGKQK
notes: also called four cysteine residues substitution by alanine; not shown: His6, N-terminal, kept
B3: his-tagged NCOA4 (383–522nd) C416A (domain or fragment, human, UniProt Q13772-1 383-522, looked up)
chain: SMVTEDWLVQNHQDPCKVEEVCRANEPCTSFAEAVCDENCEKEALYKWLLKKEGKDKNGMPVEPKPEPEKHKDSLNMWLCPRKEVIEQTKAPKAMTPSRIADSFQVIKNSPLSEWLIRPPYKEGSPKEVPGTEDRAGKQK
B4: his-tagged NCOA4 (383–522nd) C422A (domain or fragment, human, UniProt Q13772-1 383-522, looked up)
chain: SMVTEDWLVQNHQDPCKVEEVCRANEPCTSFAECVCDENAEKEALYKWLLKKEGKDKNGMPVEPKPEPEKHKDSLNMWLCPRKEVIEQTKAPKAMTPSRIADSFQVIKNSPLSEWLIRPPYKEGSPKEVPGTEDRAGKQK
B5: his-tagged NCOA4 (383–522nd) C398S (domain or fragment, human, UniProt Q13772-1 383-522, looked up)
chain: SMVTEDWLVQNHQDPSKVEEVCRANEPCTSFAECVCDENCEKEALYKWLLKKEGKDKNGMPVEPKPEPEKHKDSLNMWLCPRKEVIEQTKAPKAMTPSRIADSFQVIKNSPLSEWLIRPPYKEGSPKEVPGTEDRAGKQK
notes: C398A was insoluble, so C398S was made in its place
B6: his-tagged NCOA4 (383–522nd) C462A (domain or fragment, human, UniProt Q13772-1 383-522, looked up)
chain: SMVTEDWLVQNHQDPCKVEEVCRANEPCTSFAECVCDENCEKEALYKWLLKKEGKDKNGMPVEPKPEPEKHKDSLNMWLAPRKEVIEQTKAPKAMTPSRIADSFQVIKNSPLSEWLIRPPYKEGSPKEVPGTEDRAGKQK
B7: his-tagged NCOA4 (383–522nd) C410A (domain or fragment, human, UniProt Q13772-1 383-522, looked up)
chain: SMVTEDWLVQNHQDPCKVEEVCRANEPATSFAECVCDENCEKEALYKWLLKKEGKDKNGMPVEPKPEPEKHKDSLNMWLCPRKEVIEQTKAPKAMTPSRIADSFQVIKNSPLSEWLIRPPYKEGSPKEVPGTEDRAGKQK
B8: his-tagged NCOA4 (383–522nd) C418A (domain or fragment, human, UniProt Q13772-1 383-522, looked up)
chain: SMVTEDWLVQNHQDPCKVEEVCRANEPCTSFAECVADENCEKEALYKWLLKKEGKDKNGMPVEPKPEPEKHKDSLNMWLCPRKEVIEQTKAPKAMTPSRIADSFQVIKNSPLSEWLIRPPYKEGSPKEVPGTEDRAGKQK
B9: his-tagged NCOA4 (383–522nd) C404A (domain or fragment, human, UniProt Q13772-1 383-522, looked up)
chain: SMVTEDWLVQNHQDPCKVEEVARANEPCTSFAECVCDENCEKEALYKWLLKKEGKDKNGMPVEPKPEPEKHKDSLNMWLCPRKEVIEQTKAPKAMTPSRIADSFQVIKNSPLSEWLIRPPYKEGSPKEVPGTEDRAGKQK

Target: T1, GST-HERC2 (2540–2700th)
Experiment: pull-down; GST pull-down of HERC2 with Fe-S-bound NCOA4 (383–522nd): freshly purified or reconstituted
Details: both partners purified

Binding result, binds:
B1

Target: T2, GST-tagged FTH (human, UniProt P02794 1-183)
T2 construct: ferritin heavy chain 1 (FTH), human; also called GST-FTH; ferritin heavy chain 1; not shown: GST, N-terminal, kept
Experiment: pull-down; His-pulldown; His-tagged NCOA4 (383–522nd) WT or mutants and GST-tagged FTH, each expressed in E. coli and purified; read by immunoblotting
Details: both partners purified

T2 sequence (P02794 whole entry): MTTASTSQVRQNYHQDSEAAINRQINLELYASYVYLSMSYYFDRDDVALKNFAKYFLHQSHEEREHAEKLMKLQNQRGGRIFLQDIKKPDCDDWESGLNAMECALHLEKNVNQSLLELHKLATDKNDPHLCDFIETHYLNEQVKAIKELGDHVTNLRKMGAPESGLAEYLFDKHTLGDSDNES

Binding result, binds:
B1
B2

Target: the molecule itself
Experiment: nonreducing gel electrophoresis; purified his-tagged NCOA4 (383–522nd) WT or mutants on a nonreducing gel, with or without β-ME (10 mM) or DTT (5 mM); the reductants converted the dimer into monomers
Details: not given

Binding result, binds:
B3
B4
B5
B6
B7
B8
B9
